Test results published in US20160200782A1 (MOERAE MATRIX, published 2016).

T1: Rse(h) (human, UniProt Q06418 451-890, limits assumed)
T1 sequence (looked up): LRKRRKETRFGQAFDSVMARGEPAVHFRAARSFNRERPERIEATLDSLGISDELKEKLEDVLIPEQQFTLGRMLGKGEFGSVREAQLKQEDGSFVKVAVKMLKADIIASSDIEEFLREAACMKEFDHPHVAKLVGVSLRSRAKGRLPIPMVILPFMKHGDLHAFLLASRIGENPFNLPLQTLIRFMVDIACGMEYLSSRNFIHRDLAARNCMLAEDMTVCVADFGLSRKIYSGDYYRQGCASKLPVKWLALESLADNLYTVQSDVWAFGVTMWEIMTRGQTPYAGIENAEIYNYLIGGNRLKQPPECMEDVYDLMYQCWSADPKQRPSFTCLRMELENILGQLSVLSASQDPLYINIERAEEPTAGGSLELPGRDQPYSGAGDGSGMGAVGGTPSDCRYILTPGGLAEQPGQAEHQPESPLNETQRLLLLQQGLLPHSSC

T2: IKKα(h) (human, UniProt O15111 1-745, limits assumed)
T2 sequence (looked up): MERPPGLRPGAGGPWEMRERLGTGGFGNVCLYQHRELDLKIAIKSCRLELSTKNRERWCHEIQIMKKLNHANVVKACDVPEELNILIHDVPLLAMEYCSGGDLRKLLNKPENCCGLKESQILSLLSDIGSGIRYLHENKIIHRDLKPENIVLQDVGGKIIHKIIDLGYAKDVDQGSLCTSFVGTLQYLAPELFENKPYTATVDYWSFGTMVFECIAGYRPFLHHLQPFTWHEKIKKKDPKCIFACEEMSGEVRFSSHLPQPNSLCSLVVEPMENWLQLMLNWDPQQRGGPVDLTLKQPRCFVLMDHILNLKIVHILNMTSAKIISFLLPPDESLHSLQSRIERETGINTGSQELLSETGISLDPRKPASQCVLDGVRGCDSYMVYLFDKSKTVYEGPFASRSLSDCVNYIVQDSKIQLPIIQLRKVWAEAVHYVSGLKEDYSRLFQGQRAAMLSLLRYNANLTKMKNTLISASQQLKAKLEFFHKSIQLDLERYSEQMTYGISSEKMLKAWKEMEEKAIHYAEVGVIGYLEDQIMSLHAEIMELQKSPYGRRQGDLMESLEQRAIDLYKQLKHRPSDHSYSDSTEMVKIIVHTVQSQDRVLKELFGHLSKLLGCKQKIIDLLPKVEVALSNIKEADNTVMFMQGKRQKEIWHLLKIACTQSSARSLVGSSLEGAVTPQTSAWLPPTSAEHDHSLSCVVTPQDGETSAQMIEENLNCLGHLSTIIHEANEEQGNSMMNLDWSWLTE

T3: PKCε(h) (human, UniProt Q02156 1-737)
T3 sequence (looked up): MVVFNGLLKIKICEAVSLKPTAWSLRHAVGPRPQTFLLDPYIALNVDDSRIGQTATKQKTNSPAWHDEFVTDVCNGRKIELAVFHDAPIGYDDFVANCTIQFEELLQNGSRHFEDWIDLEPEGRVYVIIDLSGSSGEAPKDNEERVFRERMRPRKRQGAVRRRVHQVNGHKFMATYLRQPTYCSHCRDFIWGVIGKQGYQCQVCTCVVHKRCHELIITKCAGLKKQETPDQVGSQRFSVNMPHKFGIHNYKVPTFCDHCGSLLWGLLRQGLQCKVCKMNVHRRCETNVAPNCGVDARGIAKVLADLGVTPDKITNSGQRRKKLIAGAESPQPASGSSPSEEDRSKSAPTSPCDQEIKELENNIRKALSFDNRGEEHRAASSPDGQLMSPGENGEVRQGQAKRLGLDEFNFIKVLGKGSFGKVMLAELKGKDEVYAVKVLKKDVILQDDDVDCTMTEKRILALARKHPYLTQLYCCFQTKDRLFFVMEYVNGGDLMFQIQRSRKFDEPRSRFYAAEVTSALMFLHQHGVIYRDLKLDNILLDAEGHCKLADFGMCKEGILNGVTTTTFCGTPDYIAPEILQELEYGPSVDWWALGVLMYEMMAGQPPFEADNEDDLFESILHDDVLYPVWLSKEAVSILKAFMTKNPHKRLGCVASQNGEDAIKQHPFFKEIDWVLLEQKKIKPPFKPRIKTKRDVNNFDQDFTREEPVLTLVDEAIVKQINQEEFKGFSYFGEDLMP


How the values were obtained:
Assay in all cases: cell-based or functional assay
FAK(h) = FAK(h) (human, UniProt Q05397 1-1052, limits assumed)
PKCβII(h) = PKCβII(h) (human, UniProt P05771-2 1-673)
MSK1(h) = MSK1(h) (human, UniProt O75582 1-802, limits assumed)
Rse(h) = target: T1, Rse(h)
PTK5(h) = PTK5(h) (human, UniProt P42685 1-505, limits assumed)
Ab1(h) = Ab1(h) (human, UniProt P00519 27-1130, limits assumed)
Rsk2(h) = Rsk2(h) (human, UniProt P51812 1-740, limits assumed)
MINK(h) = MINK(h) (human, UniProt Q8N4C8 1-320, limits assumed)
IKKα(h) = target: T2, IKKα(h)
cKit(D816H)(h) = cKit(D816H)(h) (human, UniProt P10721 544-976, limits assumed)
STK33(h) = STK33(h) (human, UniProt Q9BYT3 1-514, limits assumed)
Lck(h) activated = Lck(h) activated (human, UniProt P06239 1-509, limits assumed)
TrkA(h) = TrkA(h) (human, UniProt P04629 441-796, limits assumed)
mTOR/FKBP12(h) = mTOR/FKBP12(h) (human, UniProt P42345 1362-2549; P62942 1-108)
Met(Y1248C)(h) = Met(Y1248C)(h) (human, UniProt P08581-2 974-1408, limits assumed)
PKCε(h) = target: T3, PKCε(h)
Note: test concentration or dose not given here.

Sequence of TrkA(h) (P04629 441-796 limits assumed): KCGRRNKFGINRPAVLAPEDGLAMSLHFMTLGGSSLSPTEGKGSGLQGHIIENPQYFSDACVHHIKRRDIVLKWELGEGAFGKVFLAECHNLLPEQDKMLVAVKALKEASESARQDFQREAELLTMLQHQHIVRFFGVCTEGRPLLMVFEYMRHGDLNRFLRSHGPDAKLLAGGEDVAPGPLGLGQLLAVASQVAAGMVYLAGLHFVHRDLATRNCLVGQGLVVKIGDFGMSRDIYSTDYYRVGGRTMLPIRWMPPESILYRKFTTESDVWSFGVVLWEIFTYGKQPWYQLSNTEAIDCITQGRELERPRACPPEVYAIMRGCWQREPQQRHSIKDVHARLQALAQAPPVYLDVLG
Sequence of MINK(h) (Q8N4C8 1-320 limits assumed): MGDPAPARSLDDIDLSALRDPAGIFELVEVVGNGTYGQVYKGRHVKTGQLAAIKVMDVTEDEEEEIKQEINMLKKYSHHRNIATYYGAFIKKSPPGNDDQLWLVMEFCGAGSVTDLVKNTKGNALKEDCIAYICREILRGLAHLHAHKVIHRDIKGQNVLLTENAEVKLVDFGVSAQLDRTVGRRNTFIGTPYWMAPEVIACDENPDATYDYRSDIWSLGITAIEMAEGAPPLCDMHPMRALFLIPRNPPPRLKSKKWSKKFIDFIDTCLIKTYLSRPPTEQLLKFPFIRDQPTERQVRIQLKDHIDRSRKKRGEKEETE
Sequence of PKCβII(h) (P05771 other isoform, or with tags, fused parts or gaps limits assumed): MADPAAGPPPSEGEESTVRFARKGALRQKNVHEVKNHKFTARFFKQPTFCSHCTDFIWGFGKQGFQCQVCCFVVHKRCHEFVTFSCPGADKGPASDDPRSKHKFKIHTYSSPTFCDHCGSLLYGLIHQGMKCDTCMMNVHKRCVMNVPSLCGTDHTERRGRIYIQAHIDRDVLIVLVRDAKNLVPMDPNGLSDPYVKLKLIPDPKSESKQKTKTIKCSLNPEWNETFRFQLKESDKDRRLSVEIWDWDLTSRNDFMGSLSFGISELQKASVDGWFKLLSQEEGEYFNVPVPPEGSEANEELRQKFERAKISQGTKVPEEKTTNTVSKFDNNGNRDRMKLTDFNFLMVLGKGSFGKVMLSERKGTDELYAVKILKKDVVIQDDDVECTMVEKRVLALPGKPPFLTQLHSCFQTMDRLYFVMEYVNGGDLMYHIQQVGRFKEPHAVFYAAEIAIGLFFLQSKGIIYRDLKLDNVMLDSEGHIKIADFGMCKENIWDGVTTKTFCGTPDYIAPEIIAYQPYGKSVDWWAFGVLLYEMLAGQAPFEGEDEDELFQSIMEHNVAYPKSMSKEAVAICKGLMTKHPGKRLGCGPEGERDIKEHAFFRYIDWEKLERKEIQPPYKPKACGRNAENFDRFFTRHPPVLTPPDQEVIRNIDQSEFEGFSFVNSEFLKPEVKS
Sequence of MSK1(h) (O75582 whole entry): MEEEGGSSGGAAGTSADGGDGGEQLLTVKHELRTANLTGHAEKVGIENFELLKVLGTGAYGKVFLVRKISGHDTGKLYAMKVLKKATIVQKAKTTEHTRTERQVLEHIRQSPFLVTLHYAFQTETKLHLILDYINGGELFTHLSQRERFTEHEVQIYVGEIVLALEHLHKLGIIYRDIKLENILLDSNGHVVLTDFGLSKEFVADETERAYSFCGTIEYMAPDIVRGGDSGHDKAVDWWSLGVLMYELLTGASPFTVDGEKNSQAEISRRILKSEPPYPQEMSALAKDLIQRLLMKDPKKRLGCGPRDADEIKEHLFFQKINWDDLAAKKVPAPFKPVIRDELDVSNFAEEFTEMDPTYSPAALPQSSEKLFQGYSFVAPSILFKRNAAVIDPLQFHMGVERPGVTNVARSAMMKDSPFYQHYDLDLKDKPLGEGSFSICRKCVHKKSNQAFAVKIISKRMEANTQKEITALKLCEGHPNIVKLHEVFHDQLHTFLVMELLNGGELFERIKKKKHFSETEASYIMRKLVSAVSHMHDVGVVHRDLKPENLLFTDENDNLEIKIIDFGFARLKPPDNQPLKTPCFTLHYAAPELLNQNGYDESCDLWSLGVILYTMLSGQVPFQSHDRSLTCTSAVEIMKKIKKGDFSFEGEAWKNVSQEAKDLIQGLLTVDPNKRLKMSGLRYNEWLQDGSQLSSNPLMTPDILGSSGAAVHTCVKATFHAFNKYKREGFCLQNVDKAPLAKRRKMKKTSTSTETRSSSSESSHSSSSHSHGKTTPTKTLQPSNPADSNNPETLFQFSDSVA
Sequence of PTK5(h) (P42685 whole entry): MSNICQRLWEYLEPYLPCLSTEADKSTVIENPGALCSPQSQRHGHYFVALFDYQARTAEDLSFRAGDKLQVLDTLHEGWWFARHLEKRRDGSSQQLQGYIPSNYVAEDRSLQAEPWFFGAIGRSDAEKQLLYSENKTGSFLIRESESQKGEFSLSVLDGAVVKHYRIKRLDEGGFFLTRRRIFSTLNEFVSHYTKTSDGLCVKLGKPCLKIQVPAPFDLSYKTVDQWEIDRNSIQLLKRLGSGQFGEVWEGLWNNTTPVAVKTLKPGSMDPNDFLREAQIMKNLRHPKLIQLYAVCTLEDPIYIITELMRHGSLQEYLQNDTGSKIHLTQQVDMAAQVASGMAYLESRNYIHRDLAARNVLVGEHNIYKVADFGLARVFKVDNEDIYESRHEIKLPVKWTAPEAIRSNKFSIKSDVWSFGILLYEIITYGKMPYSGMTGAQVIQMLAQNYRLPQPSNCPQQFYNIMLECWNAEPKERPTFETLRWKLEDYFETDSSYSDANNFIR
Sequence of mTOR/FKBP12(h) (P42345 1362-2549 limits assumed, chain 1 of 2): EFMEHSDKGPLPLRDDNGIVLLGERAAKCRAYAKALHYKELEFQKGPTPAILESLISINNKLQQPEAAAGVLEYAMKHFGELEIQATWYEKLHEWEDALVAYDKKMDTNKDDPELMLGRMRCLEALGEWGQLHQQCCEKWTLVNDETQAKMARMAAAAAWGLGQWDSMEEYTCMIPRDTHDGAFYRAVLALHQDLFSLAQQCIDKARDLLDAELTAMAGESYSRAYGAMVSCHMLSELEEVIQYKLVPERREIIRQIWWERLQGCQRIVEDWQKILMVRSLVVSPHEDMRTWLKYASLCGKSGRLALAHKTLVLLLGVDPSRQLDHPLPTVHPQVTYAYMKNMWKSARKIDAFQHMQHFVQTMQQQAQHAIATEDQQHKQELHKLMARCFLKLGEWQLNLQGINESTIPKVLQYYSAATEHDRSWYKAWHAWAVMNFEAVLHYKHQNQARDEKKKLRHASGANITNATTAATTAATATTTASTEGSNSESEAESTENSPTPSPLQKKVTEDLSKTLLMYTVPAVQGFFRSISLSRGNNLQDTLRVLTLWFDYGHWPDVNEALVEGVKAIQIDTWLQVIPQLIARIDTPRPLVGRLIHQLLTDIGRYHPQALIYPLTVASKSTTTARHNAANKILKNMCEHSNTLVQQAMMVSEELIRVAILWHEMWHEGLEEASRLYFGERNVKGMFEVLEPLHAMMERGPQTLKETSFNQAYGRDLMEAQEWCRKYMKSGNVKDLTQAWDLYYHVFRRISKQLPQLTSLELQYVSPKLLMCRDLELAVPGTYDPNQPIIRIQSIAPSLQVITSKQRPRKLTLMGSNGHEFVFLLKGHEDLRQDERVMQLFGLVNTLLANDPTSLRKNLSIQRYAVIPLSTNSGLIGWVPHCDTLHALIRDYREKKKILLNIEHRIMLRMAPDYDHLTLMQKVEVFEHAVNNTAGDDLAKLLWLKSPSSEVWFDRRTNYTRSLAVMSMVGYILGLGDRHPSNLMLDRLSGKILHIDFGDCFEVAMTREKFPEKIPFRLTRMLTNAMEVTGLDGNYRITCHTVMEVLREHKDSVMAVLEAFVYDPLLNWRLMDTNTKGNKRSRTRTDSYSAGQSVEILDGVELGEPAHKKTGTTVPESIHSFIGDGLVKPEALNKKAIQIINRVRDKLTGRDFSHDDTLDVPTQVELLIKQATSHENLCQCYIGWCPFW
Sequence of mTOR/FKBP12(h) (P62942 whole entry, chain 2 of 2): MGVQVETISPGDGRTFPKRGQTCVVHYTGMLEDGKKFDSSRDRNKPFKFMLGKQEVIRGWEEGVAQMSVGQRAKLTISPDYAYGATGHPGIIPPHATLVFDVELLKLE
Sequence of cKit(D816H)(h) (P10721 544-976 D816H limits assumed): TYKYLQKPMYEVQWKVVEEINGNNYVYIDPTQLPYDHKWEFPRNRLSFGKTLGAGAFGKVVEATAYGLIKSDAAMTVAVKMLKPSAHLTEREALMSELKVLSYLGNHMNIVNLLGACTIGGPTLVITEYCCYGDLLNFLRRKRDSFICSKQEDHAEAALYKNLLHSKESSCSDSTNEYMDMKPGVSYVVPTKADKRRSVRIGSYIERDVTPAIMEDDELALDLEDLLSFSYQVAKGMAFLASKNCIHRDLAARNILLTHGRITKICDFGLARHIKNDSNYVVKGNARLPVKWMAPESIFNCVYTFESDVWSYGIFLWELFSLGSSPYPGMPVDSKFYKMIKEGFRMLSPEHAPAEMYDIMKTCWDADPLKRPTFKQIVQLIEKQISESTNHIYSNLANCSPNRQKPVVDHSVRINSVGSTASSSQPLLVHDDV
Sequence of STK33(h) (Q9BYT3 whole entry): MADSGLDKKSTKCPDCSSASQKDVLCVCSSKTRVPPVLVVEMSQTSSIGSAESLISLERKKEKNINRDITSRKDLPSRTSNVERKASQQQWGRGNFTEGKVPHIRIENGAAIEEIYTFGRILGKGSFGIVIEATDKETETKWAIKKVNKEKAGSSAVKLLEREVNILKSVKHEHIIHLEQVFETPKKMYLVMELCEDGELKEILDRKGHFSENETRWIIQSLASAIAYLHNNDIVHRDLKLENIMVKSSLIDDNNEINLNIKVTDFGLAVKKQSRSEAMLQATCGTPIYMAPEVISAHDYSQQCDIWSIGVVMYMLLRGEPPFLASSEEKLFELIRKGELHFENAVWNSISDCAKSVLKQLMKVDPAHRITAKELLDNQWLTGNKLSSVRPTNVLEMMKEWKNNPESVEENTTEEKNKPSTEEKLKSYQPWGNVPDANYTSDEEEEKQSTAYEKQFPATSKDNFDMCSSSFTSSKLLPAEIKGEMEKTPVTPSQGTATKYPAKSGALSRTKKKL

Row | % activity (FAK(h)) [%] | % activity (PKCβII(h)) [%] | % activity (MSK1(h)) [%] | % activity (Rse(h)) [%] | % activity (PTK5(h)) [%] | % activity (Ab1(h)) [%] | % activity (Rsk2(h)) [%] | % activity (MINK(h)) [%] | % activity (IKKα(h)) [%] | % activity (cKit(D816H)(h)) [%] | % activity (STK33(h)) [%] | % activity (Lck(h) activated) [%] | % activity (TrkA(h)) [%] | % activity (mTOR/FKBP12(h)) [%] | % activity (Met(Y1248C)(h)) [%] | % activity (PKCε(h)) [%] | Binder
1 | 96 | 75 | 28 | 89 | 129 | 84 | 38 | 52 | 87 | 143 | 52 | 216 | 17 | 125 | 36 | 59 | KAFAKLAARLYRKALARQLGVAA [MMI-0400]
2 | 111 | 82 | 32 | 88 | 132 | 69 | 51 | 48 | 93 | 126 | 45 | 243 | 25 | 145 | 84 | 79 | FAKLAARLYRKALARQLGVAA [MMI-0300]
